The experiment has as its target Ac-KE7 (Homo sapiens, UniProt P05067). Nature of the experiment: Rheology of Ac-KE7 mixed with inhibitor (storage modulus, gel vs solution). It counts as physicochemical. The conditions noted are these: 1.5 mM Ac-KE7 mixed with inhibitor in 1:20 molar ratio, 25° C. From the text: Rheology. To determine the viscoelastic properties/behaviour, peptide-based hydrogels were subjected to dynamic time, strain and frequency sweep experiments using the ARES-G2 rheometer (TA Instruments, Piscataway, N.J.) with a 25.0 mm diameter stainless steel or titanium parallel plate geometry and a 0.8 mm or 1-2 mm gap distance. To ensure complete gelation and take account of the varying gelation speeds of different peptides at different concentrations, the rheology measurements were done 2 months after sample preparation. Oscillatory frequency sweep studies (measuring storage modulus (G′) vs. Angular frequency (ω)) were done at 0.1-100 rad/s using 1% strain. Oscillatory amplitude sweep studies (measuring storage modulus (G′) vs. oscillation strain % (γ)) were done using 0.01-100% strain with a constant angular frequency of 1 rad/s. All measurements were carried out at 25° C. […] The graphs display the storage moduli (G′ in Pa) as a function of (A) angular frequency (rad/sec) under 1% strain and (B) oscillation strain (%) at an angular frequency of 1 rad/sec at room temperature of 25° C. […] This can be seen from the rheological data, where the peptide-inhibitor solutions give a highly fluctuating curve for both the amplitude and frequency sweep measurements because they are in solution form; instead of a gel form.

Ends that are not written are not given here.

On to “Ac-LPG (Ac-Leu-Pro-Gly) [N-acetylated tripeptide Leu-Pro-Gly]”, for which the “hydrogel formation of Ac-KE7 (rheology)” value is on record as “no gelation”.

Take “Ac-LPE (Ac-Leu-Pro-Glu) [N-acetylated tripeptide Leu-Pro-Glu]”: the “hydrogel formation of Ac-KE7 (rheology)” value was “no gelation”.

The values above are taken from patent US20140256625A1, “ANTI-AMYLOIDOGENIC, ALPHA-HELIX BREAKING ULTRA-SMALL PEPTIDE THERAPEUTICS” (AGENCY FOR SCIENCE, TECHNOLOGY AND RESEARCH, priority 2011, published 2014).
